In the nanobody polyreactivity screen of Harvey et al. (2022):

Test: yeast display, Sf9 membrane polyspecificity reagent, FACS + sequencing; frameworks hold sequencing errors
Procedure, shortened: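 In a synthetic yeast display library (Saccharomyces cerevisiae BJ5465), nanobody expression was induced with galactose for 36–48 hours. FACS gates were set low and high (top ~1%) using anti-HA fluorescence for expression and streptavidin fluorescence for binding of the Sf9 membrane reagent. Each polyreactivity label is drawn from the gate of origin.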

**Q.** For “QVQLVESGGGLVQAGGSLRLSCPASGFTFVSYAMGWYRQAPGKERELVAAISRSGGTTYYADSVKGRFTISRDNAKNTVYLQMNSLKPEDTAVYYCAADFYVFYTRYYYWGQGTQVTVSS”, which “polyreactivity (PSR sort gate)” value is on record?
**A.** low polyreactivity

**Q.** For “QVQLVESGGGLVQAGGSLRLSCPASGIILTQNAMGWYRQAPGKERELVAAITESGARTYYADSVKGRFTISRDNAKNTVYLQMISLKPEDTAVYSCNAYRYYRGQVYPFYYWGHGTQVTVSS”, which “polyreactivity (PSR sort gate)” value is on record?
**A.** low polyreactivity

**Q.** For “QVQLVESGGGLVQAGGSLRLSCPASGLIFVDNAMGWYRQAPGKERELVAAIDSGGSTNYADSVKGRFTISRDNAKNTVYLQMNRLQPEDTAVYYCAADGIYAPWYYQESVEYYFWGQGTQVTVSS”, which “polyreactivity (PSR sort gate)” value is on record?
**A.** low polyreactivity

**Q.** With “QVQLVESGGGLVQAGGSLRLSCPASGLTFGWYAMGWYRQAPGKERELVASITRRSGSTYYADSVKGRFTISRDNAKNTVYLQMNSLKPEDTAVYFWAARSRGTTRFDYWGQGTQVTVSS” as the sequence, how does the “polyreactivity (PSR sort gate)” value read?
**A.** high polyreactivity

**Q.** Which “polyreactivity (PSR sort gate)” value does the source give for “QVQLVESGGGLVQAGGSLRLSCPASGRIFGTYPMGWSRQEPGKESELVARITRGSSTYYADSVKGRFTISRDNAKNTVYLQMNSLKPEDTAVYYCAAVGWGYSYRARYGYWGQGTQVTVSS” here?
**A.** high polyreactivity

**Q.** With “QVQLVESGGGLVQAGGSLRLSCPASGRIFPKNAMGWYRQAPGKERELVAAIDYSDGSTNYADSVKGRFTFSRDTAKNTVYLQMNSLKPDDTAVYYCAIVAVPSYDYWGQGTKVTVSS” as the sequence, how does the “polyreactivity (PSR sort gate)” value read?
**A.** low polyreactivity

**Q.** With “QVQLVESGGGLVQAGGSLRLSCPASGRIFSFYALGGYRQAPGKERELVAAITYTDGSTYADSVKGRFTISRDNAKNTVYLQMNSLKPEDTAVYYCNAYRGWLLSREMDYWGQGTQVTVSS” as the sequence, how does the “polyreactivity (PSR sort gate)” value read?
**A.** low polyreactivity

**Q.** For “QVQLVESGGGLVQAGGSLRLSCPASGRIFTYYTMGWYRQAPGKERELVASITGGGGRTYYADSVKGRFTISRDNAKNTVYLQMNSLKPEDTAVYYCNDRYPYPYWYTSYDYWGQGSQVTVSS”, which “polyreactivity (PSR sort gate)” value is on record?
**A.** high polyreactivity

**Q.** For “QVQLVESGGGLVQAGGSLRLSCPASGRILWFYAMGWYRQAPGKERELVAAISWNGGSTYYADSVKGRFTISRDNAKNTVYLQMNSLKPEDTAVYYCNKDPSVEWWFDYWGQGTQVTVSS”, which “polyreactivity (PSR sort gate)” value is on record?
**A.** low polyreactivity

**Q.** For “QVQLVESGGGLVQAGGSLRLSCPASGRTFSRNAMGRYRQAPGKERELVATISRRGGSTNYADSVKGRFTISRDNAKNTVYLQMNSLIPEDTAVYYCAAGYRVRDDKVYGIVGAMDYWGQGTQVTVSS”, which “polyreactivity (PSR sort gate)” value is on record?
**A.** high polyreactivity

**Q.** With “QVQLVESGGGLVQAGGSLRLSCPASGRTFWYYAMGWYRQAPGKVRELVAAITWSGSDTYYADSVKGRFTISRDNAKNTVYVQMNSLKPEDTAVYFCAAEYYYESSGYDYWGQGTQVTVSS” as the sequence, how does the “polyreactivity (PSR sort gate)” value read?
**A.** high polyreactivity

**Q.** For “QVQLVESGGGLVQAGGSLRLSCPASGRTFYTNAMGWYRHAPGKERELVAAITRGGSTYYADSVKGRFTISRDNAKNTVYLQMYSLKPEDTAVYYCAAAYASSWRQRVTSEKGYYWGQGTQVTVSS”, which “polyreactivity (PSR sort gate)” value is on record?
**A.** high polyreactivity

**Q.** For “QVQLVESGGGLVQAGGSLRLSCPASGSIFYTNAMGWYRQAPVKERELVAAISRGGSTKYADSVKGRFTISRDNAKNSVYLQMNSLKPEDTAVYYCAARGTASRYLYIPYYYWGQGTQVTVSS”, which “polyreactivity (PSR sort gate)” value is on record?
**A.** high polyreactivity

**Q.** For “QVQLVESGGGLVQAGGSLRLSCPASGSIYASNTMGWYRQAPGKERELVSGITKIGSSTYYADSVKRRFTISRDNAKNTVYLQMNSLKPEDTAVYYCNAYGPTIYSSRYDYWGQGTQVTVSS”, which “polyreactivity (PSR sort gate)” value is on record?
**A.** low polyreactivity

**Q.** With “QVQLVESGGGLVQAGGSLRLSCPASGSTFGYYAMGWYRQAPGKERELVAAITYSVGGTYYADSVKGRFTISRDNAKNTVYLQMNSLKPEDTAVYSCNVDYYVPPAGVTRTGDDDYWGQGTQVTVSS” as the sequence, how does the “polyreactivity (PSR sort gate)” value read?
**A.** low polyreactivity

**Q.** Which “polyreactivity (PSR sort gate)” value does the source give for “QVQLVESGGGLVQAGGSLRLSCPASGSTFKRNAMGWYRQAPGKERELVATITRRGGSTYADSVNGRFTISRDNAKNTVYLQMNSLKAEDTAVYYCARDGFSAGMDYWGQGTQVTVSS” here?
**A.** low polyreactivity

**Q.** With “QVQLVESGGGLVQAGGSLRLSCPASGSTLAWYTMGWYRQAPGKEREFVAVITGSGGSTFYADSVKGRFTISRDNAKNTVYLQMNSLKPEDTAVYYCAADYLYYVTQHRRFHLDYWGQGTQVTVSS” as the sequence, how does the “polyreactivity (PSR sort gate)” value read?
**A.** low polyreactivity
